± gives the uncertainty stated by the source.
Assay: amyloid nucleation score (Sup35N fusion, yeast selection) (log enrichment); library NNK3; higher = more nucleation; inactive = no reads after selection
In short: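 After 24 hours of induction with 100 μM copper sulfate, psi-negative yeast expressing peptides of 20 random codons fused to Sup35N were grown for 7 days at 30°C on medium lacking adenine and uracil. Input and output plasmid inserts were sequenced with Illumina, and sequences with under 100 input reads were discarded. Scores for nucleation are the DiMSum log enrichment of output over input reads, centred on the mode score of non-aggregating sequences.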

Substance | amyloid nucleation score
WVFVDLLSNVVFNGKIVERC | inactive
KFTMTPWDPLCLCVRSDIDL | inactive
GSQRLLALWNY | inactive
RRTRYDS | inactive
TGQQE | inactive
LVQIPYTDDVRLKGMINP | inactive
ILSLTFCVRRGEHGMASFCL | 0.07 ± 0.46
CRSIWITPGNYAFALSFLMR | inactive
VDVYLDYDIAMQPGVYALWR | inactive
NFWFCLISYCESFSMISERG | inactive
LYSAGLNEFLL | inactive
WVEWIWSWKNDVPLVCRASA | inactive
EFTFWWCCDRYSRAELTCRR | inactive
IVGLDLCVHWQYLQVRLYII | inactive
MVQRSMKARILFCKVNFLCA | 1.16 ± 0.15
FCHRYEMYIELTYTEGA | inactive
IVYLRKPCYNW | inactive
FVDLHCSYRCIYGCCHFRIR | inactive
ATLDTER | inactive
NVISV | inactive
DGGYFGNSWFIHGDSLFQMG | inactive
CLKTFVFMTDTRG | 1.47 ± 0.12
WGICFVITYNIKIKYDHLMS | 1.18 ± 0.081

Substance | amyloid nucleation score
LSTYPDI | inactive
RANLSDFYYSSSIDLKLPLT | inactive
NPCHCQRRINFVL | inactive
SYMVKM | inactive
LSRMTRESKPQEISAQARLD | 1.14 ± 0.13
VSITVFPFTLLITYLI | 0.165 ± 0.75
MFRLVSGTEGLRLREVWC | -0.469 ± 1.1
EYKRTSMVVQFSCSAYILTF | inactive
SRMLVSKLWKNMGLVSSAYL | inactive
LVYLQDLQLSSMLDFHSCM | inactive
LSTSL | inactive
YVVSYPVGVRSNTHLLRIWR | inactive
CCKTFYY | inactive
SGALAKDVSVGVCVRPARLY | 0.653 ± 0.19
FRSVTTVVNVEKVRVY | inactive
FFPMLIARMDALPRPVNLGY | inactive
LVLDINTFTDIGSRKRWSHG | inactive
LYRWHNLFGYTNVSSIQKYG | inactive
HSLFIFNFGCL | 2.96 ± 0.054
YIASLLDYFCMQEDQAYFDY | inactive
CFTRLVRRGNSQIKRAPGEP | inactive
LANFHDITWWTWMTSHTGGS | inactive
TAREMYSRKSRILRVILILS | inactive

Substance | amyloid nucleation score
NMSWNVCVRFK | 1.87 ± 0.068
GTSAH | inactive
DLFISPKFVQ | inactive
TCKWFFHHAIDCLRKRISME | inactive
VMLHSRFGRFRDNVTL | inactive
QWEVR | inactive
VFRAGILESWHRWEGLGVVL | inactive
APTRSV | inactive
NVFLMAYRVYACKLRGTGLS | inactive
ALFYHFL | inactive
EELLRGFGAVGSWLNLSLEV | inactive
RSVGYRTAVMRHLYIMMN | inactive
LFIWCTFFVIMFCSTTRVSI | 1.17 ± 0.16
ATAVMVRILQRACTFLDAKS | inactive
LMIVLKLP | inactive
WRRCMRYGTASASSSENAHY | 0.837 ± 0.18
GFIDVPG | inactive
QWSCGFMYSFKHLGGDCYNL | inactive
DIFGKRRLCI | inactive
IRGFVSIW | inactive
VEPYRVLYRNGR | inactive
ELRSHKLMMGRQYLHRLCSV | inactive
SFKNNL | inactive

Substance | amyloid nucleation score
NLSVGRALTWHPSPWDQQIW | inactive
DRHLAINERARLVAWFYYDF | inactive
GISTGISWQLCGHSGDWYWW | -0.658 ± 1.9
TSFSYNLGTISDRCVWILAD | -0.116 ± 0.9
CFVAILNVIFGWSY | 1.43 ± 0.069
RHDVSSGSYGGRSGAGSPAQ | inactive
NVPLKWLTWYNRRAATWVEM | inactive
TLSGLVWWCVVFAMAT | inactive
SGTGNGKIPMDRSVSDCVRE | 0.035 ± 0.37
FVVCSAM | inactive
IVTLNYQLMYKMPKLLWSSN | inactive
NNLRNIPE | inactive
ERRIPRSNLKRRSKLSKFPA | inactive
HELDSTTLCVFKPFPFHANL | inactive
KTIGILLNCIGWFVVGLPGS | 0.863 ± 0.21
IRFPTHSMYSLLYKRFLSPD | -0.744 ± 1.8
LLFDDKCYGLVVDNYRYANI | inactive
KQSMRQSYSVPPEEVDKQGR | inactive
MRGINRIDLLPG | inactive
KDIFYVAGDR | inactive
SYLCSGWDRSWAGISCEHSE | inactive
DRNAEELWCTRLLCYESCRT | inactive
ITNYLWGGKGHRNKVLSNSC | inactive

Substance | amyloid nucleation score
FTYCRASRSITMQYVCVICT | inactive
CSHYFNVYTLRCISSIGDS | inactive
NSDLIRVNRSVMYAKETCEV | inactive
TMSLTDYLCGCSWFWCKTSR | inactive
LINEECFFACVEVIGNVFRV | -0.888 ± 1.1
IAVVTSNWVADLSPGNHTCM | -0.49 ± 0.96
ANVLFEVSACLAKGIVKVRR | inactive
ITFVRGWVFDLQFNATE | 0.55 ± 0.37
RNWERIASGHVFCFLLCIID | inactive
DLLYYLRSCDFCCCMDTS | inactive
FIIHHGVYYHAMFMDMLLLM | inactive
IIFFWILS | 0.16 ± 0.29
KQYLDLVAFIADGYRVSGDE | inactive
LCTLYWNGARWSRCFATTFY | inactive
RLATHCKHNASCQQSFYRE | inactive
HKIWVVQQWGRRRQQ | inactive
QLRGGVHMMHVCACGVDWWM | inactive
FVSFGLGTMFDLRA | inactive
LLEQMQGFRLIQSGVHNTLM | inactive
VTMMLVMLFSQMFSFLAFVN | inactive
LSEWI | inactive
LLYIRC | 0.705 ± 0.23
MVLYRFCIVIHWTCTV | inactive

Substance | amyloid nucleation score
WPVNCMKGSSCNRELFNH | inactive
EHLPSSHP | inactive
TINDLSCGASRDGWMPVYS | inactive
RVNRCLLMMVDALYQNCTLN | inactive
SPLSVGEHSEMWLRLVFG | inactive
YDADRGEWLQLITSPDPFFY | inactive
PIPLIPFE | inactive
SVVMVRSVYIERSVEPPAPG | -0.607 ± 1.4
LYAWPHRTIVVVWLRILLFR | inactive
FISSSCSFVRCILLVNYKIR | -0.66 ± 1.9
CEGRHKFF | inactive
VVQSGRAFRCYRCSLEVQTE | inactive
GRGVDWMKQWNVHRKVLSSL | inactive
GDPNPHYL | inactive
YSYNKFAVEVYLSSLHPEMM | inactive
VKTESEVLLSRMSTYSWENA | 1.23 ± 0.17
WCGVFWLVVMAY | inactive
YLMVNICMNDPWVYEMVSLY | 0.902 ± 0.2
MSELWWAPSFKYQLFSHFIK | inactive
SYSHRVVLRDTRTRQAKPRA | inactive
FNVKVVSKSMFYFCSYMPIV | inactive
GYVPHVFFRILRLVRENMLE | inactive
LCLSSCWYTRGH | inactive

Substance | amyloid nucleation score
RQLSSQREWECATPMRHRLA | 0.145 ± 0.51
SVRSGLARVSRTGMG | inactive
HICIQDCVD | inactive
NLCQSAGRFCWG | inactive
GVRQVMVSSFRGNHNQKDTS | inactive
TFSISSGSASYCVSSVDSS | inactive
CRGGNFRPMEGATVNPLFEG | inactive
SIDIVVVWTGAIQDFRVLCL | -0.594 ± 1.1
YCVFGWIKAWPGGLVVNEFR | inactive
WMVVTMPSLKCGSYASVHGA | inactive
PFLLSMNVGQGFRRV | inactive
CNCRKRLVWSFGYMNISMYL | inactive
VASVIL | inactive
IVEHIFDRGVSLEVMMMCYR | inactive
ACFWLIDVTKWLTCYRRSSN | inactive
FTNLMLTTMCSLTLLTRGFP | inactive
LEITALLTVRMHVDS | inactive
MCWLVWLSPRSNDCVDHRFD | -0.163 ± 0.46
VAALFKGKAVSCGGFSFFN | -0.076 ± 0.54
MPLYCNKMGCPLGKGMHMCH | inactive
LSLNLSLNMKVKLYVYWGYR | inactive
